Experimental data published in article PMC6535718 (2019).

Molecular target: T1, Bfd (Pseudomonas aeruginosa, UniProt Q9HY80)
T1 chain: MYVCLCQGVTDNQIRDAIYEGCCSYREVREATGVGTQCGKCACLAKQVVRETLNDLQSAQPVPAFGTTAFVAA
Assay: SPR

B1: BfrB (protein)
chain: not shown
modifications: apo-BfrB (heme-free)
- Kd: 3.1 µM
